Test results taken from paper PMC4391263, “Alpers disease mutations in human DNA polymerase gamma cause catalytic defects in mitochondrial DNA replication by distinct mechanisms”.

What was measured:
[1] = target: T1, Pol-γA P1073L (exo+);Pol-γB accessory subunit (Homo sapiens;Homo sapiens, UniProt P54098;Q9UHN1 26-1239;26-485, P1073L|); test: pre-steady-state single-nucleotide incorporation kinetics; 12.5 mM Mg2+, dATP; 12.5 mM Mg2+, 37 °C; enzyme and DNA preincubated, rapid quench flow; buffer, salt and pH not given in the material. Table 1 WT Kd (9.9 ± 2.1 nM) is asterisked as apparently earlier data and not listed; conditions: protein: recombinant;recombinant; tags: ;; copies: 1;2; label: 5'-32P primer; 5' overhang 20 nt on template, recessed primer 3' end
[2] = target: Pol-γA S305R (exo+);Pol-γB accessory subunit (Homo sapiens;Homo sapiens, UniProt P54098;Q9UHN1 26-1239;26-485, S305R|); test: global fit of pre-steady-state single-nucleotide incorporation kinetics (quench flow, DNA titration); 12.5 mM Mg2+, dATP; 12.5 mM Mg2+, 37 °C; enzyme and DNA preincubated, rapid quench flow; buffer, salt and pH not given in the material. Table 1 WT Kd (9.9 ± 2.1 nM) is asterisked as apparently earlier data and not listed; conditions: protein: recombinant;recombinant; tags: ;; copies: 1;2; label: 5'-32P primer; 5' overhang 20 nt on template, recessed primer 3' end
[3] = target: T1, Pol-γA P1073L (exo+);Pol-γB accessory …; test: global fit of processive polymerization time course; 12.5 mM MgCl2; dATP, dCTP, TTP 5 μM each; 12.5 mM Mg2+, 37 °C; enzyme and DNA preincubated, rapid quench flow; buffer, salt and pH not given in the material. Table 1 WT Kd (9.9 ± 2.1 nM) is asterisked as apparently earlier data and not listed; conditions: protein: recombinant;recombinant; tags: ;; copies: 1;2; label: 5'-32P primer; 5' overhang 20 nt on template, recessed primer 3' end
[4] = target: Pol-γA wild-type (exo+);Pol-γB accessory subunit (Homo sapiens;Homo sapiens, UniProt P54098;Q9UHN1 26-1239;26-485, |); test: global fit of processive polymerization time course; 12.5 mM MgCl2; dATP, dGTP, TTP 5 μM each; 12.5 mM Mg2+, 37 °C; enzyme and DNA preincubated, rapid quench flow; buffer, salt and pH not given in the material. Table 1 WT Kd (9.9 ± 2.1 nM) is asterisked as apparently earlier data and not listed; conditions: protein: recombinant;recombinant; tags: ;; copies: 1;2; 5' overhang 48 nt on template, recessed primer 3' end
Pol-γA wild-type (exo+);Pol-γB accessory subunit, sequence (P54098 26-1239, chain 1 of 2): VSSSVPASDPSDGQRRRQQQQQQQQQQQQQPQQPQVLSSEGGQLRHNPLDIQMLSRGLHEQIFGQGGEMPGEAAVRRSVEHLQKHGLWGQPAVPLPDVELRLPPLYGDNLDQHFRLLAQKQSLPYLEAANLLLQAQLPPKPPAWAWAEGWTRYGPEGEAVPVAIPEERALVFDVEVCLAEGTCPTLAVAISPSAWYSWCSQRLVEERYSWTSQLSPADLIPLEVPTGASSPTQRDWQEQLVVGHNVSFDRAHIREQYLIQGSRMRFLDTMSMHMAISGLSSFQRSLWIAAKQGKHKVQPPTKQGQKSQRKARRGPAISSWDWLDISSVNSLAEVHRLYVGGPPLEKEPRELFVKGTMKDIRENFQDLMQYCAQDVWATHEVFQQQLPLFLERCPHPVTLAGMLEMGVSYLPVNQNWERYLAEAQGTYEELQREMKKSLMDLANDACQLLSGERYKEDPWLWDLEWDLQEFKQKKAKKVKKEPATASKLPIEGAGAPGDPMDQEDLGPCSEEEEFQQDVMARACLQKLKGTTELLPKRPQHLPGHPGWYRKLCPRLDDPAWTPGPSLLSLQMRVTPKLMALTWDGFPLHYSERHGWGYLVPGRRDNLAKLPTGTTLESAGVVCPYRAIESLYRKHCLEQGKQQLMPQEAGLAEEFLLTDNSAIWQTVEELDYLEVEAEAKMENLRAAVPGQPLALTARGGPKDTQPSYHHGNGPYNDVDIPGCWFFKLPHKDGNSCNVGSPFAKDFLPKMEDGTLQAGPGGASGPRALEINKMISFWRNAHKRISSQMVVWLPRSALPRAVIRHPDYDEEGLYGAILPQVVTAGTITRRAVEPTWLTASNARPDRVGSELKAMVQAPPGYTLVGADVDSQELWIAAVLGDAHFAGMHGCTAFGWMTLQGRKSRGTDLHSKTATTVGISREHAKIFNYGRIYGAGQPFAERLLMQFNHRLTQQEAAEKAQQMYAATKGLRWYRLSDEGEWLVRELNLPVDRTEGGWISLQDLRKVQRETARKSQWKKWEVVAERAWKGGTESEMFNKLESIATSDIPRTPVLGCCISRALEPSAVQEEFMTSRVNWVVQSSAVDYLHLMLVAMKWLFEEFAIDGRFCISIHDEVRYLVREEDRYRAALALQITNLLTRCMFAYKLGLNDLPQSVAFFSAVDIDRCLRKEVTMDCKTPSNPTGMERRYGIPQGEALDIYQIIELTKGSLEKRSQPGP
Pol-γA wild-type (exo+);Pol-γB accessory subunit, sequence (Q9UHN1 26-485, chain 2 of 2): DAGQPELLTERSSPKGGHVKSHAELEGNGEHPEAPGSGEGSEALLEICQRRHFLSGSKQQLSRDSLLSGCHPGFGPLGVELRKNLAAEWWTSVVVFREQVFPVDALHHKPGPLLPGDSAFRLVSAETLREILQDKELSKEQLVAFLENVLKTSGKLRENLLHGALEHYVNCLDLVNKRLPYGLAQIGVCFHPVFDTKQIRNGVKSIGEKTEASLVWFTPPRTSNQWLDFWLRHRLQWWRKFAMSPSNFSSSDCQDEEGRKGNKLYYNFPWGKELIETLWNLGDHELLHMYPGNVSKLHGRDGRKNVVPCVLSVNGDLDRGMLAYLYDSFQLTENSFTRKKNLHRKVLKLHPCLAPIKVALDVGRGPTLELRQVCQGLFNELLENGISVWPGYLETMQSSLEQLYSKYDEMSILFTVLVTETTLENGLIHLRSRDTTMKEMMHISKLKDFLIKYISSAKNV

T1 sequence (P54098 26-1239 P1073L, chain 1 of 2): as the sequence (P54098 26-1239, chain 1 of 2) above, with P1048L counted along it
T1 sequence (Q9UHN1 26-485, chain 2 of 2): as the sequence (Q9UHN1 26-485, chain 2 of 2) above
Pol-γA S305R (exo+);Pol-γB accessory subunit, sequence (P54098 26-1239 S305R, chain 1 of 2): as the sequence (P54098 26-1239, chain 1 of 2) above, with S280R counted along it
Pol-γA S305R (exo+);Pol-γB accessory subunit, sequence (Q9UHN1 26-485, chain 2 of 2): as the sequence (Q9UHN1 26-485, chain 2 of 2) above

Row | Binder | Kd [1] [nM] | Kd [2] [nM] | Kd [3] [nM] | Kd [4] [nM]
1 | 25-mer/45-mer primer-template (dsDNA) DNA 1: GCCTCGCAGCCGTCCAACCAACTCA DNA 2: GGACGGCATTGGATCGAGGTTGAGTTGGTTGGACGGCTGCGAGGC | 10.2 ± 1.2 | 100 ± 4 | 15 | –
2 | 25-mer/73-mer primer-template (dsDNA) DNA 1: GCCTCGCAGCCGTCCAACCAACTCA DNA 2: CCCCACCTGCAGGCATGCAAGCTTGGCACTGGCCGTCGTTTTACCTCTTGAGTTGGTTGGACGGCTGCGAGGC | – | – | – | 15
